Laboratory results reported in US20250034594A1, “RNA-GUIDED GENOME RECOMBINEERING AT KILOBASE SCALE” (THE BOARD OF TRUSTEES OF THE LELAND STANFORD JUNIOR …, priority 2021, published 2025).

Tests used:
Type in all cases: cell-based
gene editing with dCas9 = experiment: Screen of 322 new SSAP proteins, gene editing activity with dCas9 (Table 5); parameters: dCas9 with SSAP activity: scale not given here
In short: (§1)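 The 322 SSAP proteins were found in sequence data and then synthesized. Each was screened for gene editing activity when paired with Cas9 and with dCas9.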

[1] = tested on: gene editing with Cas9 and dCas9; experiment: Screen of 322 new SSAP proteins, activity across all experiments (Cas9 and dCas9, Table 5); parameters: scale not given here
In short: as §1

gene editing with Cas9 = experiment: Screen of 322 new SSAP proteins, gene editing activity with Cas9 (Table 5); parameters: Cas9 with SSAP activity: scale not given here
In short: as §1

Molecule | dCas9 with SSAP activity (gene editing with dCas9) | dCas9 with SSAP activity (normalized) (gene editing with dCas9) | Activity across all experiments [1] | Cas9 with SSAP activity (gene editing with Cas9) | Cas9 with SSAP activity (normalized) (gene editing with Cas9)
SSAP_24: SEQ ID NO: 193 (protein) TNNQIVEAKGDFLTNPQLLNSGIIRKYLDPQGKASDEELAYFIAQAKAQNLNPFTKEIYFIKYGTQPAQIVTAKSAFEKKADSHPQFDGKEAGVIYLMDGEIKYSKGAFIPKGAEILGGWAKVYRKDRTYPTETEVSFEEYDNSKIRARVKELTQQGKDVTYPVMNSYGKPIGENNWDTMPCVMIRKVALVSAYREAFPAELGASYEADEIQLDNTPKDVTPQESREDVVARKMAEIEQFNKEQEANHADPEPTQNEDPIQGELLDGELEY | −5.319 | −0.711 | −4.480 | −3.642 | −0.681
SSAP_85: SEQ ID NO: 254 (protein) TASKQTDIFSFVSGGEDITITLADIKNYFCANATDQECVLFGQLCKANGLNPWLKEAYLIKYDKNAPAAMVTGKDAYMKRANEHPAFDGYEAGVKVYLPDVGQVEYREGTAYYEDLGEQLIGGYAKVYRKDRSRPYYEEVPLKEYDTKQSKWKTSPATMIRKVALVHALREAFPTNIQGMYDADETPYAADYEGSFREMDDPTPAPSMRGRIAPAPVADPLEDLEADVIEAGDVE | −5.091 | −1.071 | −2.702 | −0.312 | −0.125
SSAP_168: SEQ ID NO: 337; Romboutsia lituseburensis (protein, listed as Romboutsia lituseburensis) SNLKNVLKNQEDKGQGITVNPTYAMKQLMIKMKNDIDLALPKNLSSERFQKVSMSAFNNNEKLQNCEPTTFIAAMMQSAQLGLEPNTPLGQVYLIPHNLNGVDKVQFQVGYKGLLQLAHRSGKLKTLYAHEVKENDEFEIDYGLEQKLIHKPLLKGNRGDVIGYYAVYHLEPSGYSFEFMTYDEVAKHGKKYSKDFEGGIWEKDFDSMAKKTVIKKLLKYAPLSIEMQKAVAFDESVKSSIDSDMLLVESIGE | −5.210 | −0.836 | −2.237 | 0.735 | 1.158
SSAP_110: SEQ ID NO: 279; Aneurinibacillus tyrosinisolvens (protein, listed as Aneurinibacillus tyrosinisolvens) SDLKEKLEKRANETEAAPPSPAQTIAAYLKRMEPEIARALPKHMDVERLTRIALTTIRTNPRLLECTVPSLLGAVMQAAQLGLEPGLLGQCYIIPHGREATFIIGYKGMIDLARRSGNIKSIYAHDVRENDEFEYEYGLHPFLKHRPAMTDRGKFIGVYAVAHFNDGGYQFEFMPYEEIERRKLRSRSYKNGPWVTDYEEMAKKTVIRHMFKYLPLSVEIMRSAAQDETVRPDLTSDPVSIYERPIEGKIITAEDVQPEEIPNVPDAEQGDV | −5.104 | −1.491 | −3.889 | −2.674 | −0.477
SSAP_248: SEQ ID NO: 417; Peptoniphilus senegalensis (protein, listed as Peptoniphilus senegalensis) TNQIARKPVNEIKNVLSVPSVRNLFDNALADNAGAFVSSLIDLYGGDSYLQNCEPKDVVMEALKAATLKLPINKNLGFGYVVPFKNKNGKLVPTFIIGYKGLIQLAMRTGQYKAINSGIIYEGMEIKEDVLRGTLEIKGSKQSEKIKGYFAYFQLINGFEKALYMDVEEAADWGRKYSKSFAKGPWTTEFDAQAQKTCLRRLLSKYGVLSTEMQRLEKTEEDVDIAVGTIENNAVEELNIPSSQADYIVDEETGEILDDEEIVAPF | −5.272 | −0.814 | −3.063 | −0.854 | −1.210
SSAP_128: SEQ ID NO: 297; Viridibacillus sp. FSL H8-0123 (protein, listed as Viridibacillus sp.) ATNNALKEQMKQAPSKEVKPEQSLNTLLKRMGPEIQRALPKHMDADRIARIALTAVRNTPKLLDCDQMSFVAALMQSAQLGVEPNTGLGQAYLIPYGKQVQFQLGYKGLIDLAVRSGQYKAIYAHEVYEDDEFSFAYGLHKDLVHVPAPNPTGEPIGYYAVYHLQNGGYDFVYWTRERIDQHAHKFSMAVQKGWTSPWKTNFDAMAKKTVLKEVLKYAPKSIEMQKVVDADETVKTDVSDDMSNVIDVTDYTVMDQEQETIQEPTK | −5.299 | −0.965 | −2.230 | 0.839 | 0.272
SSAP_244: SEQ ID NO: 413; Nicoletella semolina (protein, listed as Nicoletella semolina) LKNADPQSVFNAACMAATLNLPIQNGLGFAYIVPYQNKKEKKTEAQFQLGYKGLIQLAQRSGQFKRLVAVPVYEKQLIAEDPINGFEFDWKQKPENGEKPIGYYAYFKLLNDFTAELYMTTHEVDEHAQRYSQTYRTYLDKKSKGQWASSVWADNFEAMALKTVMKLLLSKQAPLSVEMQQAVLADQAVVKNVETNEFSYVDNQIEEAEYTELKVSTDIFEKCKQSILNKETTLQELCDSGYEFSQEQYAELEKLEVE | −4.966 | −0.819 | −6.718 | −8.469 | 
SSAP_28: SEQ ID NO: 197 (protein) AITPNPIPAQDGSPIPSPDDIVGELARRKIYAGIPDDDVALALALCQKYGFDPLLKHLVLLATKDRDETTGQGQKHYNAYVTRDGLLHVAHTSGMLDGLETIQGKDDLGEWAEAVVYRKDMSRPFRYRVYLSEYVREAKGVWKTHPQAMLTKTAEVFALRRAFDVALTPFEEMGFDNQNIAGDTGPSPKTGFTEKAGFTGNTDFSAEASLPGKARFSTEAGLTDMTVIPPNRVTGSIPETSRLNTSAGSTGRQRRQLF | −4.957 | −0.886 | −2.227 | 0.503 | 0.506
SSAP_61: SEQ ID NO: 230 (protein) ATSLKRAVTGDGKPATVQQLLTNPKIKSQIALALPQHLTPERLTRIVLTEIRRTPALAKCKPESLLAAVMQCAQLGLEPGGSLGHAWLMPFKNEVQFIIGYRGMIDLARRSGQVLSIEARGVYESDTFHVSFGLEPDLTHQPDWDPADRGKLAFVYAVARLKDGGFQFDVMSRAEVEKIRAQSPAGKSGPWVTHFEEMAKKTVIRRLFKYLPVSVEMARAVGLDEAAERGEQSDAIDADCVIESEEEATPEEKGDSAA | −5.258 | −0.804 | −3.303 | −1.348 | −0.539
SSAP_140: SEQ ID NO: 309; Staphylococcus equorum (protein, listed as Staphylococcus equorum) ATNETLKQKVVERKPNGVKEQSPKTQLNHLLKKMAPEIQRALPKHMDSDRMARIAMTAVSNTPKLLECDQMSFIAALMQASQLGVEPNTGLGQAYLIPYAGKVQFQLSYKGLIDLATRSGQYKSIYAHEVYTNDEFEYRYGLFKDLIHIPSQEPEGNPIGYYAVYHLKNGGYDFVYWTRERVDKHAKEFSQAVQKGWTSPWITNYDAMAKKTVLKEVLKYAPKSIEMNKAVENDSTIKEEIDKDMSTVIDVTDYSEVEEQESLETGGQTSK | −5.000 | −0.780 | −3.187 | −1.374 | −0.848
SSAP_247: SEQ ID NO: 416; Ruminococcus sp. CAG: 579 (protein, listed as Ruminococcus sp.) NERTNLQYAPAPVERFKECLNSHEIKARLKNSLKNNWTQFQTSMLDLYSGDAYLQKCDPMAVALECVKAATLDLPISKSLGFAYVVPYNNVPTFTLGYKGLIQLAQRTGQYRTINADVVYEGEIRGADKLSGMVDLSGERTGDEVVGYFAYFKLINGFEKMIYMTRAEAEKWRDDYSPSAKSKYSPWRTDFDKMALKTCIRRLISKYGIMSVEMQGVMTEEAEPRAAAAAKRAEETVQANANSKVIDIDAAPPAANESPAEAAPQPDF | 0.549 | 0.332 | −1.027 | −2.602 | −3.388
SSAP_251: SEQ ID NO: 420; Hathewaya proteolytica (protein, listed as Hathewaya proteolytica) ADSKKELILKESYSVLDRLIETKISAMPKDFNRTRFLQNCMTVLQDTKDIEKCQPISVARTLLKGAFLGLDFFQKECYAIPYGGTLQFQTDYKGETKMAKKYSIRPIKDIYAKVVREDDLFEEEIKEGQQFVNFKPIPFSDKPIIGAFAVVLYQDGGMEYETMSKTQIEGIRDNFSKMKNGLMWTKTPEEAYKKTVLRRLTKKIEKDFDTIEQAKTYEETSDSEFKKEEKCNEKSVFDVEYSEVESEELEQQTMLENSPFGGEQ | −5.041 | −0.760 | −3.012 | −0.983 | −1.345
SSAP_62: SEQ ID NO: 231 (protein) SEISKAVATQQNPLAVVARYKRELGTVLPTVLRQDPDRWLMAAENAARKNPDIMAVTKADQGASYMRALVECARLGHEPGSKDFHFIKRGNAISGEESYRGIIKRVLNSGFYRSVVARTVFSNDTYSFDPLTDIVPNHVPAQGDRGKPLSAYAFAVHWDGTPSTVAEATPERIATAKAKSFASDKPTSPWQLPTGVMYRKTAIRELEPYVHVAPEPQPRRHLDGTVGGIPATDFDVDDGDVLDITADQLAEAGEIV | −4.940 | −0.604 | −3.538 | −2.135 | −1.289
